Assay results published in patent US20190382504A1 (EUREKA THERAPEUTICS, published 2019).

Assays:
[1] = target: biotinylated recombinant ESO157/HLA-A*02:03 complex (human); assay: BLI (Octet QK), biotinylated pMHC on streptavidin sensor, BsAb 10 ug/mL
[2] = target: biotinylated recombinant ESO157/HLA-A*02:02 complex (human); assay: as above
[3] = target: biotinylated recombinant ESO157/HLA-A*02:05 complex (human); assay: as above
[4] = target: biotinylated recombinant ESO157/HLA-A*02:06 complex (human); assay: as above
[5] = target: T1, biotinylated recombinant ESO157 wild type peptide/HLA-A*02:01 complex monomer (human); assay: SPR (Biacore X100), biotinylated pMHC on streptavidin chip, BsAb as analyte
T1 construct: also called recombinant ESO157/HLA-A*02:01 complex; biotin-labelled ESO157 wild type peptide/HLA-A*02:01 complex

[6] = target: biotinylated recombinant ESO157/HLA-A*02:02 complex (human); assay: BLI (Octet QK), biotinylated pMHC on streptavidin sensor, BsAb 10 ug/mL; remark: listed apart in the source
[7] = target: biotinylated recombinant ESO157/HLA-A*02:05 complex (human); assay: as above; remark: listed apart in the source
[8] = target: biotinylated recombinant ESO157/HLA-A*02:11 complex (human); assay: as above

Binder	Kd [1] [nM]	Kd [2] [nM]	Kd [3] [nM]	Kd [4] [nM]	Kd [5] [nM]	koff [5] [s⁻¹]	kon [5] [M⁻¹ s⁻¹]	Kd [6] [nM]	Kd [7] [nM]	Kd [8] [nM]
ESO157 BsAb #148 (anti-ESO157/HLA-A*02:01 scFv x anti-human CD3epsilon scFv, single chain) (bispecific antibody, V domains shown, not shown: small tags and cut ends) VH: EVQLVQSGAEVKKPGASVKVSCKASGGTFSSYAISWVRQAPGQGLEWMGGIIPIFGTANYAQKFQGRVTITADKSTSTAYMELSSLRSEDTAVYYCARSYWSWTPYDPWGQGTLVTVSS VL: LPVLTQPPSVSVAPGKTARITCGGNNIGSKSVHWYQQKPGQAPVLVIYYDSDRPSGIPERFSGSNSGNTATLTISRVEAGDEADYYCQVWDSSSDHYVFGTGTKVTVL	85	19	18	224	6	0.000902	151000	–	–	–
ESO157 BsAb #76 (anti-ESO157/HLA-A*02:01 scFv x anti-human CD3epsilon scFv, single chain) (bispecific antibody) QSVVTQPPSLSGAPGQRVTISCNGSGSNIGAGYDVHWYQQLPGTAPKLLIYGNSNRPSGVPDRFSGSKSGTSASLAITGLQAEDEADYYCQSYDSSLSGWGIFGGGTKLTVLGSRGGGGSGGGGSGGGGSLEMAEVQLVQSGAEVKKPGSSVKVSCKASGGTFSSYAISWVRQAPGQGLEWMGGIIPIFGTANYAQKFQGRVTITADESTSTAYMELSSLRSEDTAVYYCARYDSYVYDEWGQGTLVTVSS	47	–	–	126	–	–	–	34	40	97
ESO157 BsAb #66 (anti-ESO157/HLA-A*02:01 scFv x anti-human CD3epsilon scFv, single chain) (bispecific antibody) QSVLTQPPSVSGAPGQRVTISCTGSSSNIGAGYDVHWYQQLPGTAPKLLIYGNSNRPSGVPDRFSGSKSGTSASLAITGLQAEDEADYYCQSYDSSLSGSWVFGGGTKLTVLGSRGGGGSGGGGSGGGGSLEMAEVQLVESGAEVKRPGASVKVSCKASGYTFTSYGISWVRQAPGQGLEWMGRFIPNLNKGNSAHKFEGRVSFTADKFTNTAYMELRGLKSDDTAVYYCARGDYGSDQWGQGTLVTVSS	47	–	–	58	–	–	–	25	33	48
